How the values were obtained:
[1] = biological target: human Anti-Mullerian Hormone Receptor II (AMHR2), full length (human) (UniProt Q16671); assay: flow cytometry competition on AMHR2-OVCAR8 cells: 4D12G1 mAb at 1 µg/ml with recombinant ovalbumin at 100 µg/ml; 91 % without competitor in FIG. 2E
[2] = biological target: human Anti-Mullerian Hormone Receptor II (AMHR2), full length (human) (UniProt Q16671); assay: flow cytometry competition on AMHR2-OVCAR8 cells: 4D12G1 mAb at 1 µg/ml with recombinant ovalbumin at 1 µg/ml; 91 % without competitor in FIG. 2E
[3] = biological target: human Anti-Mullerian Hormone Receptor II (AMHR2), full length (human) (UniProt Q16671); assay: flow cytometry competition on AMHR2-OVCAR8 cells: 4D12G1 mAb at 1 µg/ml with recombinant ovalbumin at 10 µg/ml; 91 % without competitor in FIG. 2E
[4] = biological target: human Anti-Mullerian Hormone Receptor II (AMHR2), full length (human) (UniProt Q16671); assay: flow cytometry on AMHR2-OVCAR8 cells, mAb at 1 µg/ml
[5] = biological target: human Anti-Mullerian Hormone Receptor II (AMHR2), full length (human) (UniProt Q16671); assay: flow cytometry on primary HGSOC-2 cells
[6] = biological target: human Anti-Mullerian Hormone Receptor II (AMHR2), full length (human) (UniProt Q16671); assay: flow cytometry on primary HGSOC-1 cells

human Anti-Mullerian Hormone Receptor II (AMHR2), full length (human), sequence (Q16671 18-573 limits assumed): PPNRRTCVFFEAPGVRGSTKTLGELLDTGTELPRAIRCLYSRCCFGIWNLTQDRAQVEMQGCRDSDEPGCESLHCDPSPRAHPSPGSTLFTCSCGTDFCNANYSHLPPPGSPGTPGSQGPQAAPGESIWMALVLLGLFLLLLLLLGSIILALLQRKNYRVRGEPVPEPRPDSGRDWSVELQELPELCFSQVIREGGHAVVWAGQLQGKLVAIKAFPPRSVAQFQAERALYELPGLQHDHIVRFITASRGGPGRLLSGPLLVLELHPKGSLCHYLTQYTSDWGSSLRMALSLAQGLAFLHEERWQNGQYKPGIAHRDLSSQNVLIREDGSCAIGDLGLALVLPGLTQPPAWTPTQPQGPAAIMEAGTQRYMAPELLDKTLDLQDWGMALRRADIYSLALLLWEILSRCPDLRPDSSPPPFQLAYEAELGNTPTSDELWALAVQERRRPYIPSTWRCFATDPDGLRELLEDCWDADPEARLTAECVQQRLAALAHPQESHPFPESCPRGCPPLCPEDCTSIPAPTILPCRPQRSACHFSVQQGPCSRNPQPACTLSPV

recombinant ovalbumin (from UniProt P01012 2-386)
% of cells in the 4D12G1-positive gate with ovalbumin at 100 µg/ml [1]: 88% | % of cells in the 4D12G1-positive gate with ovalbumin at 1 µg/ml [2]: 88% | % of cells in the 4D12G1-positive gate with ovalbumin at 10 µg/ml [3]: 86%

isotype control mAb (antibody)
% of cells in the positive gate [4]: 1.1% | percent of cells bound [5]: 1.1% | percent of cells bound [6]: 1.5%
